The values below come from US20230241168A1 (ALPINE IMMUNE SCIENCES, published 2023).

What all share (assay): cell-based or functional assay
Test [1] has as its target recombinant human APRIL (human) (UniProt O75888). More on the design: IC50 APRIL (Δ TACI 30-110-Fc) / IC50 BAFF (Δ TACI 30-110-Fc): unit not given beside the values.
Test [2] addresses recombinant human BAFF (human) (UniProt Q9Y275). More on the design: IC50 APRIL (Δ TACI 30-110-Fc) / IC50 BAFF (Δ TACI 30-110-Fc): unit not given beside the values.
Test [3] concerns the target T1, recombinant human APRIL (human, UniProt O75888 105-250, limits assumed).
T1 sequence (looked up): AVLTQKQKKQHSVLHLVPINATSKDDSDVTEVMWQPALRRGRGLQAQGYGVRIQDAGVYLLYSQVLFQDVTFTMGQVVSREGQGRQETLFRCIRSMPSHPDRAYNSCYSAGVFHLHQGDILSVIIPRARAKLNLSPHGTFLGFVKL

For test [4], the target named is T2, recombinant human BAFF (human, UniProt Q9Y275 134-285).
The next test addresses T3, human CD80 (human, UniProt P33681 35-288).
T3 sequence (looked up): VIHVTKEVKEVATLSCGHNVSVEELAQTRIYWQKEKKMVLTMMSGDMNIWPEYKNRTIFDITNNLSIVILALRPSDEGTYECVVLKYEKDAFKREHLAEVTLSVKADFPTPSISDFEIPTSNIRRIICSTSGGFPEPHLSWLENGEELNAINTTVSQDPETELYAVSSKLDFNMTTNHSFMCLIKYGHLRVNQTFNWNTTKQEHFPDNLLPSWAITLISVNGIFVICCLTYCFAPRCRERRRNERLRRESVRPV

Another test deals with T4, human CD86 (human, UniProt P42081 24-329).
T4 sequence (looked up): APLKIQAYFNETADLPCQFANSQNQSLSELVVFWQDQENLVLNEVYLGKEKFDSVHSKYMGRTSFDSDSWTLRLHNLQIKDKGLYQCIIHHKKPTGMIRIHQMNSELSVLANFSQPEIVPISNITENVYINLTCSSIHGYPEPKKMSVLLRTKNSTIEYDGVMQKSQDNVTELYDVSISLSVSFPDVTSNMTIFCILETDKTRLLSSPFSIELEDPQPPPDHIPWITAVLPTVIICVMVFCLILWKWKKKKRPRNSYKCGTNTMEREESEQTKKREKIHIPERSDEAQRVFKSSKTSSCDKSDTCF

Test [5] addresses T1, recombinant human APRIL. The source holds these as a separate data set.
Test [6] has as its target T2, recombinant human BAFF. The source holds these as a separate data set.
Test [7] has as its target recombinant human APRIL (human) (UniProt O75888). More on the design: IC50 APRIL (Δ Parental vTD) / IC50 BAFF (Δ Parental vTD): unit not given beside the values.
In test [8] the target is recombinant human BAFF (human) (UniProt Q9Y275). More on the design: IC50 APRIL (Δ Parental vTD) / IC50 BAFF (Δ Parental vTD): unit not given beside the values.

Numbering of substitutions follows the chain as printed. Names may count otherwise. Read-outs that look alike come from different tables or passages of the source. No end group written: not given here.

Turning to TACI 13-118-Fc (Fc fusion), in [1], the IC50 (nM) APRIL came out at 9100 nM and the IC50 APRIL (Δ TACI 30-110-Fc) is 2.37. Moreover, in test [2], the IC50 (nM) BAFF came out at 7700 nM and the IC50 BAFF (Δ TACI 30-110-Fc) turned out to be 1.33.
For TACI 30-110-Fc (Fc fusion) the same measures were 3850 nM, 1, 5770 nM and 1.

B1: 528 TACI CRD2-Fc (Fc fusion, not shown: a dimerising Fc or GST)
chain: SLSCRKEQGKFYDHLLRDCISCASICGQHPKQCAYFCENKLRS
modifications: not fully specified (C-terminus); cysteine pairing not given here; also: Fc fusion, linker and Fc not given here
For the molecule B1, in test [1], the IC50 (nM) APRIL stood at 369 nM and the IC50 APRIL (Δ TACI 30-110-Fc) was determined as 0.1. In test [2], the IC50 (nM) BAFF was determined as 1330 nM and the IC50 BAFF (Δ TACI 30-110-Fc) amounted to 0.23.

B2: CTLA-4 186GSG4S-Fc-(G4S)4-BCMA 381 (Fc fusion)
chain: KAMHVAQPAVVLASSRGIASFVCEYASPWKATEVRVTVLRQADSQVTEVCAATYMMGNELTFLDDSICTGTSSGNQVNLTIQGLRAMDTGLYICKVEQMYPPPYLLGIGNGTQIYVIDPEPCPDSDGSGGGGSEPKSSDKTHTCPPCPAPEAEGAPSVFLFPPKPKDTLMISRTPEVTCVVVDVSHEDPEVKFNWYVDGVEVHNAKTKPREEQYNSTYRVVSVLTVLHQDWLNGKEYKCKVSNKALPAPIEKTISKAKGQPREPQVYTLPPSRDELTKNQVSLTCLVKGFYPSDIAVEWESNGQPENNYKTTPPVLDSDGSFFLYSKLTVDKSRWQQGNVFSCSVMHEALHNHYTQKSLSLSPGGGGGSGGGGSGGGGSGGGGSLQMAGQCSQNEYFDALLYACIPCQLRCSSNTPPLTCQQYCNASVTNSVKGTNA
Turning to B2, the “IC50 (nM) APRIL” value in the test with recombinant human APRIL [3] was determined as 1.27 nM. Besides, in the test with recombinant human BAFF [4], the “IC50 (nM) BAFF” value was found to be 0.282 nM. Also, in the test with human CD80, the “CD80 IC50” value came out at 26.1 nM and the “CD80 IC50 (Δ Parental CTLA-4)” value came out at 0.8 ratio. In addition, in the test with human CD86, the “CD86 IC50” value amounted to 11.9 nM and the “CD86 IC50 (Δ Parental CTLA-4)” value amounted to 1.5 ratio.

B3: CTLA-4 186-GSG4S-Fc-(G4S)4-BCMA 406 (Fc fusion)
chain: B2 chain with A399S, Y402L, Q422R
Consider B3, for which the “IC50 (nM) APRIL” value with recombinant human APRIL [3] stood at 0.997 nM. The “IC50 (nM) BAFF” value in the test with recombinant human BAFF [4] was 0.49 nM. For the same molecule, in the test with recombinant human APRIL [5], the “IC50 (nM) APRIL” value was 269 nM and the “IC50 APRIL (Δ TACI 30-110-Fc)” value was 0.07 ratio. Besides, in the test with recombinant human BAFF [6], the “IC50 (nM) BAFF” value is 2630 nM and the “IC50 BAFF (Δ TACI 30-110-Fc)” value is 0.46 ratio. Also, in the test with human CD80, the “CD80 IC50” value came to 25.2 nM and the “CD80 IC50 (Δ Parental CTLA-4)” value was 0.8 ratio. In addition, in the test with human CD86, the “CD86 IC50” value worked out at 8.1 nM and the “CD86 IC50 (Δ Parental CTLA-4)” value amounted to 1.3 ratio.

B4: CTLA-4 186GSG4S-Fc-(G4S)4-BCMA 405 (Fc fusion)
chain: B2 chain with A399S, Y402K, Q422R
B4: the “IC50 (nM) APRIL” value with recombinant human APRIL [3] stood at 18.4 nM. In addition, in the test with recombinant human BAFF [4], the “IC50 (nM) BAFF” value worked out at 0.16 nM. Also, in the test with human CD80, the “CD80 IC50” value amounted to 70.1 nM and the “CD80 IC50 (Δ Parental CTLA-4)” value turned out to be 2.1 ratio. Besides, in the test with human CD86, the “CD86 IC50” value was determined as 10.8 nM and the “CD86 IC50 (Δ Parental CTLA-4)” value was found to be 1.3 ratio.

B5: CTLA-4 186GSG4S-Fc-(G4S)4-BCMA 411 (Fc fusion)
chain: B2 chain with A399S, Y402R, Q422R
With B5, in the test with recombinant human APRIL [3], the “IC50 (nM) APRIL” value was determined as 2.37 nM. For the same molecule, the “IC50 (nM) BAFF” value in the test with recombinant human BAFF [4] is 0.133 nM. Also, in the test with human CD80, the “CD80 IC50” value is 32.7 nM and the “CD80 IC50 (Δ Parental CTLA-4)” value is 1 ratio. For the same molecule, in the test with human CD86, the “CD86 IC50” value is 9 nM and the “CD86 IC50 (Δ Parental CTLA-4)” value was 1.1 ratio.

B6: TACI WT Fc (Fc fusion, not shown: a dimerising Fc or GST)
chain: VAMRSCPEEQYWDPLLGTCMSCKTICNHQSQRTCAAFCRSLSCRKEQGKFYDHLLRDCISCASICGQHPKQCAYFCENKLRS
On to B6, for which, in [7], the IC50 (nM) APRIL stood at 9.17 nM and the IC50 APRIL (Δ Parental vTD) amounted to 1. In test [8], the IC50 (nM) BAFF was 2.58 nM and the IC50 BAFF (Δ Parental vTD) is 1.

B7: Belimumab (antibody, V domains shown)
VH: QVQLQQSGAEVKKPGSSVRVSCKASGGTFNNNAINWVRQAPGQGLEWMGGIIPMFGTAKYSQNFQGRVAITADESTGTASMELSSLRSEDTAVYYCARSRDLLLFPHHALSPWGRGTMVTVSS
VL: SSELTQDPAVSVALGQTVRVTCQGDSLRSYYASWYQQKPGQAPVLVIYGKNNRPSGIPDRFSGSSSGNTASLTITGAQAEDEADYYCSSRDSSGNHWVFGGGTELTVLG
Take B7: in the test with recombinant human APRIL [5], the “IC50 (nM) APRIL” value was 215000 nM and the “IC50 APRIL (Δ TACI 30-110-Fc)” value worked out at 55.8 ratio. For the same molecule, in the test with recombinant human BAFF [6], the “IC50 (nM) BAFF” value is 2500 nM and the “IC50 BAFF (Δ TACI 30-110-Fc)” value was 0.43 ratio.

B8: CTLA-4 92 GSG4S Fc (G4S)2 BCMA 357 (Fc fusion)
chain: KAMHVAQPAVVLASSRGIASFVCEYASPWKATEVRVTVLRQADSQVTEVCAATYMMGSELTFPDDSICTGTSSGNQVNLTIRGLRAMDTGLYICKVEQMYPPPYLLGIGNGTQIYVIDPEPCPDSDGSGGGGSEPKSSDKTHTCPPCPAPEAEGAPSVFLFPPKPKDTLMISRTPEVTCVVVDVSHEDPEVKFNWYVDGVEVHNAKTKPREEQYNSTYRVVSVLTVLHQDWLNGKEYKCKVSNKALPAPIEKTISKAKGQPREPQVYTLPPSRDELTKNQVSLTCLVKGFYPSDIAVEWESNGQPENNYKTTPPVLDSDGSFFLYSKLTVDKSRWQQGNVFSCSVMHEALHNHYTQKSLSLSPGGGGGSGGGGSLQMAGQCSQNEYFDSLLYACIPCQLRCSSNTPPLTCQRYCNASVTNSVKGTNA
As to B8, in the test with recombinant human APRIL [3], the “IC50 (nM) APRIL” value is 0.683 nM and the “IC50 APRIL (Δ Parental vTD)” value turned out to be 1 ratio. Moreover, in the test with recombinant human BAFF [4], the “IC50 (nM) BAFF” value came to 6.27 nM and the “IC50 BAFF (Δ Parental vTD)” value was 1.2 ratio. For the same molecule, the “CD80 IC50” value in the test with human CD80 is 22.7 nM. For the same molecule, the “CD86 IC50” value with human CD86 was 16.1 nM.

B9: CTLA-4 186 GSG4S Fc (G4S)4 TACI 541 (Fc fusion)
chain: KAMHVAQPAVVLASSRGIASFVCEYASPWKATEVRVTVLRQADSQVTEVCAATYMMGNELTFLDDSICTGTSSGNQVNLTIQGLRAMDTGLYICKVEQMYPPPYLLGIGNGTQIYVIDPEPCPDSDGSGGGGSEPKSSDKTHTCPPCPAPEAEGAPSVFLFPPKPKDTLMISRTPEVTCVVVDVSHEDPEVKFNWYVDGVEVHNAKTKPREEQYNSTYRVVSVLTVLHQDWLNGKEYKCKVSNKALPAPIEKTISKAKGQPREPQVYTLPPSRDELTKNQVSLTCLVKGFYPSDIAVEWESNGQPENNYKTTPPVLDSDGSFFLYSKLTVDKSRWQQGNVFSCSVMHEALHNHYTQKSLSLSPGGGGGSGGGGSGGGGSGGGGSSLSCRKEQGEYYDHLLRDCISCASICGQHPKQCADFCENKLRS
In the case of B9, the “IC50 (nM) APRIL” value in the test with recombinant human APRIL [3] came out at 1.56 nM. In the test with recombinant human BAFF [4], the “IC50 (nM) BAFF” value worked out at 0.103 nM. In the test with recombinant human APRIL [5], the “IC50 (nM) APRIL” value stood at 272 nM and the “IC50 APRIL (Δ TACI 30-110-Fc)” value was found to be 0.07 ratio. In the test with recombinant human BAFF [6], the “IC50 (nM) BAFF” value is 1260 nM and the “IC50 BAFF (Δ TACI 30-110-Fc)” value was 0.22 ratio. In addition, in the test with human CD80, the “CD80 IC50” value came out at 56.9 nM and the “CD80 IC50 (Δ Parental CTLA-4)” value is 1.7 ratio. In the test with human CD86, the “CD86 IC50” value was 10.2 nM and the “CD86 IC50 (Δ Parental CTLA-4)” value is 1.2 ratio.

B10: CTLA-4 186 GSG4S Fc (G4S)4 (TACI 542) (Fc fusion)
chain: B9 chain with Q392E, E394K, Y395F, R401Q, D419Y
Consider B10, for which, in the test with recombinant human APRIL [3], the “IC50 (nM) APRIL” value amounted to 2.49 nM. Also, the “IC50 (nM) BAFF” value with recombinant human BAFF [4] was determined as 0.153 nM. In addition, in the test with human CD80, the “CD80 IC50” value came to 82.6 nM and the “CD80 IC50 (Δ Parental CTLA-4)” value worked out at 2.5 ratio. In the test with human CD86, the “CD86 IC50” value was 9 nM and the “CD86 IC50 (Δ Parental CTLA-4)” value was found to be 1.1 ratio.
